Reference: patent CN115141278A (BIO THERA SOLUTIONS LTD, dated 2022)

Biological target: T1, 食蟹猴VISTA-Fc (cynomolgus monkey, UniProt A0A7N9IB00 33-194)
T1 construct: Bought reagent; also called VISTA-Fc(食蟹猴，Sino biological Inc); not shown: Fc part
T1 sequence: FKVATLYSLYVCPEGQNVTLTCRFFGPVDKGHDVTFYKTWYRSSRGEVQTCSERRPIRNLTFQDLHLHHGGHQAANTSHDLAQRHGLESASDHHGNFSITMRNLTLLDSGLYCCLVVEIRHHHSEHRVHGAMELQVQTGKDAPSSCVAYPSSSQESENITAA
Assay: ELISA on coated VISTA-Fc, anti-human kappa-HRP detection

B1: 阳性参照抗体VSTB112 (antibody, V domains shown)
VH: QVQLVQSGAEVKKPGSSVKVSCKASGGTFSSYAISWVRQAPGQGLEWMGGIIPIFGTANYAQKFQGRVTITADESTSTAYMELSSLRSEDTAVYYCARSSYGWSYEFDYWGQGTLVTVSS
VL: DIQMTQSPSSLSASVGDRVTITCRASQSIDTRLNWYQQKPGKAPKLLIYSASSLQSGVPSRFSGSGSGTDFTLTISSLQPEDFATYYCQQSAYNPITFGQGTKVEIKR
EC50: 0.065 µg/mL
